Experimental data reported in patent US8927205.

Legend:
[1] = biological target: TNFR1-Fas receptor chimera on mouse fibroblasts from TNFR1/TNFR2 double-knockout mice (MF TNFR1-Fas cells) (UniProt P19438); test: cell-based or functional assay
[2] = biological target: normal human wild-type TNF receptors on Kym1 cells; test: cell-based or functional assay

Sequence of TNFR1-Fas receptor chimera on mouse fibroblasts from TNFR1/TNFR2 double-knockout mice (MF TNFR1-Fas cells) (P19438 other isoform, or with tags, fused parts or gaps mutant limits assumed): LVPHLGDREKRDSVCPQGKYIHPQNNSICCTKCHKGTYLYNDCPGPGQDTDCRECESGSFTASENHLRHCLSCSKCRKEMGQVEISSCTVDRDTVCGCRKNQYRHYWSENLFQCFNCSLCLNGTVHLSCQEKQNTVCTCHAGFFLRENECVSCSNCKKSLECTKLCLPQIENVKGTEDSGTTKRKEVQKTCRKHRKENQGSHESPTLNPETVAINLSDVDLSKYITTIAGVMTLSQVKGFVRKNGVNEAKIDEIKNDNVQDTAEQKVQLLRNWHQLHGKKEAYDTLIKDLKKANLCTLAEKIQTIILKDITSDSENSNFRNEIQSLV

soluble human wild-type TNF (from UniProt P01375 57-233) (ligand)
ED50 (half-maximal effective concentration), cytotoxicity on MF TNFR1-Fas cells, freshly prepared dilutions [1]: 0.2 ng/mL | ED50, cytotoxicity on MF TNFR1-Fas cells, dilutions stored 8 days at 37° C. before the test [1]: 2 ng/mL | ED50, cytotoxicity on MF TNFR1-Fas cells, solutions stored 14 days at 37° C. before the test [1]: 2.8 ng/mL | ED50, cytotoxicity on Kym1 cells, solutions stored 16 days at 37° C. (FIG. 8) [2]: 1.2 ng/mL | ED50 after 8 days (FIG. 12), stored at 37° C. in 100% human serum, cytotoxicity on Kym1 cells [2]: 0.4 ng/mL | ED50 after 22 days (FIG. 9), cytotoxicity on Kym1 cells, samples stored at 37° C. [2]: 1.5 ng/mL | ED50 freshly titrated (FIG. 7), cytotoxicity on Kym1 cells [2]: 0.1 ng/mL | ED50 freshly titrated (FIG. 11), diluted in 100% human serum, cytotoxicity on Kym1 cells [2]: 0.004 ng/mL
